Measurements reported in the supplement of paper PMC11502859.

Tested on: HEK293T
Experiment: median enrichment of reporter reads in eGFP-reduced (low/intermediate) vs eGFP-high sorted cells (eGFP-extension fusion abundance) (ratio); higher = stronger loss of eGFP-fusion protein abundance (more destabilising extension)
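Further: lentiviral eGFP-IRES-mCherry reporter pool sorted by FACS 96 h post-transduction, gated on mCherry-high cells, Illumina read counts normalized per million, median across four biological replicates.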

Substance | median enrichment
CGAEHHPSH [PPM1J] | 0.355
ELLTAFPKALLQKRSMSVIITWLSNLFHSMEPWRRKTLSYFVTQPGIGLFGPTRFPSPEELPRPGDQC [GRM7] | 6.76
SNNQQYSRSNQHHHVIMVLWHICNIKILN [ACOX2] | 5.11
YGPGTGGAHPATEHVRVLVLFRSPLSRCNFCSSSPTPAPSFMLLFRTQPPCPVLVVSR [STMN3] | 7.57
KFVISFICIYVVN [HEATR5B] | 13.7
KHVVLWVHFV [ABHD3] | 10.5
REQ [UNC93A] | 5.69
SRL [ICAM4] | 0.718
SGV [PTCHD4] | 0.462
QGNPRSNQGGGS [POLA1] | 0.576
GGGSRSDQLIAHMLCLDME [HNRNPAB] | 3.08
RTQDSE [CD3G] | 0.492
QYTF [PNISR] | 1.03
LYVTVSCLSSSMYF [ARHGEF35] | 14.4
RRPVPR [TBC1D24] | 1.51
YIPNILGL [RASEF] | 10.1
YRTDVE [HEY1] | 0.613
KHHQSVKGLCGMQEFQTHGQSGLFFLVLRASSEHRSHIAAHREGWNEKWKRGSTFLLGDMNHLCSYYVIRNLVAWPYLAAREP [CFAP61] | 4.22
YKISPLPACCKVT [CAMKK2] | 11.5
LMDHG [GLUD2] | 1.6
LQPTWSTRAGP [KRT36] | 0.897
QLLVPPSLLVIRFPRLTP [PITRM1] | 9.11
CGSCGCPCCVALYDCC [NDUFB10] | 4.77
YNSEVNVLKYNY [TEFM] | 0.662
LFRCYSSLLKDDENAECLFKCF [GABRA4] | 13.1
WQKSKGHPVPGRLSGICSPVPGTKSSTAAVKKHALESLEHEEKQGLVHMFFGISL [IL1RAPL1] | 10.6
YTQKTNSIQSQ [ENDOD1] | 1.93

Substance | median enrichment
KKKLSHREKNI [OGA] | 0.598
YVHGLSLYPTALLCDSLMKLVTFTSQNFG [KDM4D] | 7.32
SCPSFGNILF [RNASET2] | 0.362
RQSWCCRPIGRSWKASGCVPAMSWHWQSWRRRRANPRAQRTLRKPAGAESCVGHPTRHPSSLRRPVGRQGSRGFALLLSSRVM [RAB15] | 3.13
QGQVICSLSAFTPFNSLTPCQTYLSGTSSPDTFQRREKK [CREBZF] | 4.04
LWRSLVRRQDFSGLCLNGPHLNFSPFFLFLALGKASFYQTYRERKLQG [CTCF] | 9.53
SKTWPENPQVLQRKTELGKGESWKDGAD [ABHD15] | 0.348
SNTAFNWELETH [PREPL] | 0.178
KKSSINVLSIGKYT [GRIN2A] | 1.77
CATLSVGFFLEDSTLLPHVLSQLQS [CSTF1] | 8.47
WLYESFCHKVPKRRGMGRVPQHVVTA [DSN1] | 11
SLYGAICPPSPSRTLEGTSAPAGLGPPLSLLQASWCLHTSGSWPRKSQQEQGMGEGRCHTTWR [CISH] | 4.49
LAVWAPRGLALLPGLGEPRAALPWQRQDVGERSLVQ [GRK6] | 3.3
CVSSFTDSPQPFSCLKT [DPH6] | 3.83
ECPARAAAPATLPRVAFRAAPRVGNLGARGGRLGVPFFFSFSFAFRLFYFFLK | 15.7
RMNTCQE [OR52N4] | 0.48
YINEENKRS [CLEC7A] | 0.716
LLTLS [BBS5] | 10.2
ECDKVQPSDLIIHKIIYT [ZNF679] | 8.95
RCKPPYESTVADRRRGGCCSCRSINMCCMSFLLFF [LMO7] | 22.4
RLQSVVLVPLSQCRLVFLHILSMA [CDC16] | 7.48
TTTTTTTTTT [Thr10] | 0.379
KGRINK [NPIPA1] | 0.274
LGHANNQSCSNFKPVTAHNRPGSELCEGP [CDON] | 0.661
SGSIFLIDEKNNSVMAIYPC [NDUFA1] | 9.19
SWTVPICREA [RWDD1] | 6.01
